Experimental data as given in patent US6730828B1, “Isolated nucleic acids encoding a wheat glutathione transferase, plants transformed therewith and methods of use thereof” (Aventis Agriculture Limited, priority 1997, dated 2004).

Key:
[1] = target: the molecule itself; assay: subunit composition of purified isoenzymes (anion exchange, reversed-phase HPLC, SDS-PAGE)
Procedure: The component polypeptides in the active fractions were then analysed by silver staining after resolution by sodium dodecyl sulphate polyacrylamide gel electrophoresis (SDS-PAGE). It was concluded that in fenchlorazole-ethyl-treated wheat the polar GSTs were composed of 25 kDa and 26 kDa polypeptides, while the hydrophobic fraction contained 25 kDa, 26 kDa and 24 kDa polypeptides. Further analysis by reversed-phase HPLC confirmed the subunit compositions (FIG. 2). Based on the combined analyses by Q-sepharose, HPLC and SDS-PAGE these GST polypeptides were named as described in Table 1, which also contains details of how these subunits associate together to form the active dimers found in plants and the relative abundance of these subunits in extracts from unsafened and fenchlorazole-ethyl treated (safened) plants.

[2] = GST activity toward herbicide fenoxaprop-ethyl (HPLC-based assay); assay type: biochemical; conditions: recombinant wheat GST expressed in E. coli, affinity purified; ± standard error
Procedure: (§1) The purified isoenzymes were assayed for GST activity toward herbicides using the HPLC-based assays described by Edwards R. and Cole D. J. (Pesticide Biochemistry and Physiology Vol. 54, pp96-104 (1996)) and the results are presented in Table 2. […] These isoenzymes had additional activities as glutathione peroxidases able to reduce linoleic acid hydroperoxide, a major reaction product formed during membrane peroxidation in plants (Williamson and Beverly. J. Cereal Sci. 8, 1988, 155-163).
(§2) To assay the recombinant fusion proteins for GST activity, the E. coli were grown in the presence of IPTG and then pelleted by centrifugation. The bacteria were then lysed by sonication and the protein precipitated using 80% ammonium sulphate. After resuspension and desalting, GSTs were purified by affinity chromatography. The WIC 3 fusion protein was purified using sulphobromophthalein-S-glutathione affinity chromatography (Mozer et al. Biochem. 22, 1983, 1068-1072) while the other WIC fusion proteins were purified using glutathione-agarose (Mannervik and Guthenberg. Methods Enzymol. 77 1981, 231-235).The purified enzymes were then assayed for GST activities toward herbicides (Table 3) and GST activities toward non-herbicide substrates and glutathione peroxidase activities toward organic hydroperoxides (Table 4).
(§3) A polyclonal antiserum was raised in a rabbit to a mixture of TaGST1-2 and TaGST1-3. When tested against crude extracts from safener-treated wheat shoots the antiserum recognised both the 25 kDa TaGST1 subunit and the 26 kDa safener-inducible TaGST2 and TaGST3 subunits. The antiserum was then used in conjunction with the antiserum raised to TaGST1-1 to immuno screen the cDNA library prepared from fenchlorazole ethyl treated wheat shoots as described in example 1. Duplicate lifts were taken from the plated out library and the first blot screened with the antiserum raised against TaGST1-2 and TaGST1-3. The second blot was screened with the antiserum raised to TaGST1-1. Five plaques were identified from the first blot which were absent from the second blot corresponding to cDNAs encoding TaGST2 or TaGST3 like polypeptides and theses clones were purified and the respective plasmids sequenced. […] The other three clones ICC. ICP and ICV had identical DNA sequences (SEQ ID No. 17) and predicted amino acid sequence (SEQ ID No. 18). GST ICJ was sub-cloned into the pET 11a vector after using PCR to introduce a Nde 1 restriction site into the translation start site, using the primer 5′ AGGTAGTTACATATGGCCGGAGGA 3′ (SEQ ID No. 19) in the amplification. following sub-cloning, the sequence of GST ICJ was re-checked to ensure no PCR induced errors had been introduced. The recombinant GST ICJ was then expressed in E. coli and purified by S-hexylglutathione affinity chromatography. The purified GST ICJ was assayed for activities as a GST (Table 3) and as a glutathione peroxidase (Table 4). […] GST ICV was finally expressed as the respective beta-galactosidase fusion protein using the Bluescript plasmid and assayed for GST activity (Table 3 ) and glutathione peroxidase activity (Table 4) in crude bacterial lysates. The specific activity of GST ICV toward these substrates was then calculated by I) subtracting the low levels of GST and GPOX activity present due the endogenous activities in the E. coli and ii) determining the proportion of protein in the lysate present as recombinant GST ICV from SDS-PAGE analysis, by densitometry analysis of polypeptides stained with Coomassie blue.

[3] = GST activity toward CDNB; assay type: biochemical; conditions: recombinant wheat GST expressed in E. coli, affinity purified
Procedure: as §1
To confirm that TaGST1 encoded a GST, it was expressed as a fusion protein with beta-galactosidase using the pBluescript plasmid in E. coli strain SOLR. TaGST1 clones were inoculated into LB liquid medium and were grown overnight at 37/C on all orbital shaker in the presence of IPTG. Bacteria were then pelleted by centrifugation, lysed by sonication and assayed for GST activity toward CDNB and analysed by SDS-PAGE and Western blotting using the anti-TaGSTI-I serum. With all six TaGST1 clones, GST activity toward CDNB could be determined in the crude extracts in the range 30-50 nkat/mg crude lysate.
as §2
as §3, with “The specific activity of GST ICV toward these substrates was then calculated by I) subtracting the low levels of GST and GPOX activity present due the endogenous activities in the E. coli and ii) determining the proportion of protein in the lysate present as recombinant GST ICV from SDS-PAGE analysis, by densitometry analysis of polypeptides stained with Coomassie blue.” left out

[4] = GST activity toward herbicide fluorodifen (HPLC-based assay); assay type: biochemical; conditions: recombinant wheat GST expressed in E. coli, affinity purified; ± standard error
Procedure: as §1, §2, §3

[5] = GST activity toward benzyl isothiocyanate; assay type: biochemical; conditions: recombinant wheat GST, affinity purified; ± standard error
Procedure: as §2

[6] = GST activity toward herbicide metolachlor (HPLC-based assay); assay type: biochemical; conditions: recombinant wheat GST expressed in E. coli, affinity purified; ± standard error
Procedure: as §1, §2, §3

[7] = GST activity toward crotonaldehyde; assay type: biochemical; conditions: recombinant wheat GST, affinity purified; ± standard error
Procedure: as §2

[8] = Glutathione peroxidase activity toward cumene hydroperoxide; assay type: biochemical; conditions: recombinant wheat GST, affinity purified; ± standard error (n = 3)
Procedure: as §2, §3

B1: Triticum aestivum GST 1 subunit (25 kDa) (enzyme)
chain: MAGEKGLVLLDFWVSPFGQRVRIALAEKGLPYEYAEEDLMAGKSDRLLRANPVHKKIPVLLHDGRAVNESLIILQYLEEAFPDAPALLPSDPYARAQARFWADYVDKKVYDCGSRLWKLKGEPQAQARAEMLDILKTLDGALGDKPFFGGDKFGFVDAAFAPFTAWFHSYERYGEFSLPEVAPKIAAWAKRCGERESVAKSLYSPDKVYDFIGLLKKKYGIE
notes: Native subunit in wheat shoot extracts; also called TaGST1
binding result [1]: binds

B2: WIC 2: recombinant type I wheat GST, SEQ ID No. 5, amino acid SEQ ID No. 6 (protein)
chain: MAPAVKVYGWAVSPFVARPLLCLEEAGVEYELVSMSRAAGDHRQPDFLARNPFGQVPVLEDGDLTLFESRAIARHVLRKHKPELLGCGSPEAEAMVDVWLEVEAHQYNPAASAIVVQCIILPLLGGARDQAVVDENVAKLKKVLEVYEARLSASRYLAGDDISLADLSHFPFTRYFMETEYAPLVAELPHVNAWWEGLKARPAARKVTELMPPDLGLGKKAE
modifications: Triticum aestivum L.
GST activity toward fenoxaprop-ethyl [2]: 0.085 ± 0.002 nkat.mg^−1 | GST activity toward CDNB [3]: 187 nkat.mg^−1 | GST activity toward fluorodifen [4]: 0.096 ± 0.002 nkat.mg^−1 | GST activity toward benzyl isothiocyanate [5]: 33.3 ± 4.5 nkat.mg^−1 | GST activity toward metolachlor [6]: 0.512 ± 0.04 nkat.mg^−1 | GST activity toward crotonaldehyde [7]: 5.5 ± 1.3 nkat.mg^−1 | Glutathione peroxidase activity toward cumene hydroperoxide [8]: 28.2 ± 1.7 absorbance change at 340 nm.mg^−1

B3: WIC 3: recombinant type I wheat GST, SEQ ID No. 7, amino acid SEQ ID No. 8; coding sequence identical in WIC 7 and WIC 8 (protein)
chain: MAPVKLYGATLSWNVTRCVAALEEAGVQYEIVPINFGTGEHKSPDHLARNPFGQVPALQDGDLYVFESRAICKYACRKNKPELLKEGDIKESAMVDVWLEVEAHQYTAALSPILFECLIHPMLGGATDQKVIDDNLVKIKNVLAVYEAHLSKSKYLAGDFLSLADLNHVSVTLCLAATPYASLFDAYPHVKAWWTDLLARPSVQKVAALMKP
modifications: Triticum aestivum L.
GST activity toward fenoxaprop-ethyl [2]: 0.093 ± 0.002 nkat.mg^−1 | GST activity toward CDNB [3]: 2,519 nkat.mg^−1 | GST activity toward fluorodifen [4]: 0.014 ± 0.006 nkat.mg^−1 | GST activity toward benzyl isothiocyanate [5]: 9.0 ± 0.5 nkat.mg^−1 | GST activity toward metolachlor [6]: 0.053 ± 0.004 nkat.mg^−1 | GST activity toward crotonaldehyde [7]: 6.3 ± 0.9 nkat.mg^−1 | Glutathione peroxidase activity toward cumene hydroperoxide [8]: 1.4 ± 0.3 absorbance change at 340 nm.mg^−1

B4: WIC 5: recombinant type I wheat GST, SEQ ID No. 9, amino acid SEQ ID No. 10 (protein)
chain: MAPIKLYGMMLSANVTRVTTLLNELGLEFDFVDVDLRTGAHKHPDFLKLNPFGQIPALQDGDEVVFESRAINRYIATKYGASLLPTPSAKLEAWLEVESHHFYPPARTLVYELVIKPMLGAPTDAAEVDKNAADLAKLLDVYEAHLAAGNKYLAGDAFPLADANHMSYLFMLTKSPKADLVASRPHVKAWWEEISARPAWAKTVASIPLPPAV
modifications: Triticum aestivum L.
GST activity toward fenoxaprop-ethyl [2]: 0.067 ± 0.003 nkat.mg^−1 | GST activity toward CDNB [3]: 174 nkat.mg^−1 | GST activity toward fluorodifen [4]: 0.030 ± 0.002 nkat.mg^−1 | GST activity toward benzyl isothiocyanate [5]: 9.4 ± 2.0 nkat.mg^−1 | GST activity toward metolachlor [6]: 0.040 ± 0.004 nkat.mg^−1 | GST activity toward crotonaldehyde [7]: 4.5 ± 0.5 nkat.mg^−1 | Glutathione peroxidase activity toward cumene hydroperoxide [8]: 1.3 ± 0.2 absorbance change at 340 nm.mg^−1
